According to patent US20230192839A1, “ANTIBODIES HAVING CONDITIONAL AFFINITY AND METHODS OF USE THEREOF” (PFIZER INC., priority 2017, published 2023):
Residue numbers refer to the chain shown, from its start.

B1: P01_B02: anti-CD33 clone with increased affinity in presence of MTX; VH SEQ ID NO: 31, VL SEQ ID NO: 32 (antibody, V domains shown)
VH: QVQLVESGGGLVQAGGSLRLSCAASRRSSRSWAMHWVRQAPGKGLEWVAVISYDGRLKYYADSVKGRFTISRDNAEYLVYLQMNSLRAEDTAVYYCAAADWYSGGGDALDIWGQGTLVTVSS
VL: DIQMTQSPSSLSASVGDRVTITCRASQTIYNYLNWYQQKPGKAPKLLIYGASNLQSGVPSRFSGSGSGTDFTLTISSLQPEDFATYYCQQTYSSPTFGQGTKVEIK
modifications: Synthetic Antibody
B2: P04_C05: anti-CD33 clone with conditional affinity; VH SEQ ID NO: 41, VL SEQ ID NO: 42 (antibody, V domains shown)
VH: QVQLVESGGGLVQAGGSLRLSCAASRRSSRSWAMHWVRQAPGKGLEWVAVISYDGRLKYYADSVKGRFTISRDNAEYLVYLQMNSLRAEDTAVYYCAAGLPWTDYWGQGTLVTVSS
VL: QSVLTQPPSASGTPGQRVTISCSGSNSNIGSNYVSWYQQLPGTAPKLLIYSNNQRPSGVPDRFSGSKSGTSASLAISGLRSEDEADYYCAAWDDRLSVVFGTGTKLTVL
modifications: Synthetic Antibody
B3: P02_E08: anti-CD33 clone with conditional affinity; VH SEQ ID NO: 37, VL SEQ ID NO: 38; also as scFv in CAR (antibody, V domains shown)
VH: QVQLVESGGGLVQAGGSLRLSCAASRRSSRSWAMHWVRQAPGKGLEWVAVISYDGRLKYYADSVKGRFTISRDNAEYLVYLQMNSLRAEDTAVYYCAASDYDGGGLFDLWGQGTLVTVSS
VL: QSVLTQPPSASGTPGQRVTISCSGSNSNIGDNYVHWYQQLPGTAPKLLIYMNNQRPSGVPDRFSGSKSGTSASLAISGLRSEDEADYYCATWDDSLSGVVFGTGTKLTVL
modifications: Synthetic Antibody
notes: also as scFv in CAR
B4: P03_H04: anti-CD33 clone with conditional affinity; VH SEQ ID NO: 39, VL SEQ ID NO: 40; also as scFv in CAR (antibody, V domains shown)
VH: QVQLVESGGGLVQAGGSLRLSCAASRRSSRSWAMHWVRQAPGKGLEWVAVISYDGRLKYYADSVKGRFTISRDNAEYLVYLQMNSLRAEDTAVYYCAADPHDGYGGGPGFDYWGQGTLVTVSS
VL: B3 VL with N26S, D31S, H35Y, M51R, N52S, T91A, S95T, G98A
modifications: Synthetic Antibody
notes: also as scFv in CAR
B5: P02_A10: anti-CD33 clone with conditional affinity; VH SEQ ID NO: 9, VL SEQ ID NO: 10 (antibody, V domains shown)
VH: B3 VH with S99E, D100S, Y101E, D102W, G103D, G104T, L106G, L109V
VL: B1 VL with T28S, Y30G, N31S, G50S, A51S, T91S, S93T, P95G
modifications: Synthetic Antibody
B6: P02_D08: anti-CD33 clone with conditional affinity; VH SEQ ID NO: 13, VL SEQ ID NO: 14 (antibody, V domains shown)
VH: B4 VH with D99E, P100R, H101G, Y104L, G105D, G107N, P108V, F110L, Y112I
VL: B1 VL with T28S, Y30S, N31K, N53T, T91S, P95G
modifications: Synthtic Antibody; Synthetic Antibody
B7: P16_E06: anti-CD33 clone with conditional affinity; VH SEQ ID NO: 29, VL SEQ ID NO: 30 (antibody, V domains shown)
VH: QVQLVESGGGLVQAGGSLRLSCAASRRSSRSWAMHWVRQAPGKGLEWVAVISYDGRLKYYADSVKGRFTISRDNAEYLVYLQMNSLRAEDTAVYYCAAEGGDYPGTSDGGLDIWGQGTLVTVSS
VL: B1 VL with T28S, Y30S, N53S, T91S, S94A, P95G
modifications: Synthetic Antibody
B8: P02_H01: anti-CD33 clone with conditional affinity; VH SEQ ID NO: 17, VL SEQ ID NO: 18 (antibody, V domains shown)
VH: QVQLVESGGGLVQAGGSLRLSCAASRRSSRSWAMHWVRQAPGKGLEWVAVISYDGRLKYYADSVKGRFTISRDNAEYLVYLQMNSLRAEDTAVYYCAAGSGGGDGLDVWGQGTLVTVSS
VL: B1 VL with Y30S, N31S, G50S, A51S, N53T, S56G, T91S, P95G
modifications: Synthetic Antibody
B9: P02_E11: anti-CD33 clone with conditional affinity; VH SEQ ID NO: 15, VL SEQ ID NO: 16; also as scFv in CAR (antibody, V domains shown)
VH: B8 VH with G99E, S100A, G101S, G102T, G103D, D104N, V108Y
VL: B1 VL with Y30S, N31R, Y32H, G50S, N53S, Q55A, T91S, Y92H, S94A, P95G
modifications: Synthetic Antibody
notes: also as scFv in CAR
B10: P02_C02: anti-CD33 reference clone, less than 2-fold MTX effect; VH SEQ ID NO: 11, VL SEQ ID NO: 12 (antibody, V domains shown)
VH: QVQLVESGGGLVQAGGSLRLSCAASRRSSRSWAMHWVRQAPGKGLEWVAVISYDGRLKYYADSVKGRFTISRDNAEYLVYLQMNSLRAEDTAVYYCAAEGGMGLDPWGQGTLVTVSS
VL: B1 VL with Y30S, N31S, G50A, Q55H, T91S, P95G
modifications: Synthetic Antibody
B11: P01_A09: anti-CD33 clone with conditional affinity; VH SEQ ID NO: 3, VL SEQ ID NO: 4; tested as scFv-Fc (antibody, V domains shown)
VH: QVQLVESGGGLVQAGGSLRLSCAASRRSSRSWAMHWVRQAPGKGLEWVAVISYDGRLKYYADSVKGRFTISRDNAEYLVYLQMNSLRAEDTAVYYCAAERPTSDGSTGGMDVWGQGTLVTVSS
VL: B1 VL with T28S, Y30S, N31S, N53T, T91S, P95G
B12: P04_C09: anti-CD33 clone with conditional affinity; VH SEQ ID NO: 23, VL SEQ ID NO: 24 (antibody, V domains shown)
VH: QVQLVESGGGLVQAGGSLRLSCAASRRSSRSWAMHWVRQAPGKGLEWVAVISYDGRLKYYADSVKGRFTISRDNAEYLVYLQMNSLRAEDTAVYYCAAEANESDSGGIDVWGQGTLVTVSS
VL: B1 VL with Y30G, N31G, G50A, N53S, T91G, P95G, T96A
modifications: Synthetic Antibody
B13: P08_C08: anti-CD33 clone with conditional affinity; VH SEQ ID NO: 27, VL SEQ ID NO: 28 (antibody, V domains shown)
VH: B11 VH with R100G, P101S, T102G, D104T, G105D, S106G, T107S, G109A, M110I
VL: B1 VL with T28S, Y30G, N31S, G50A, N53S, T91S, P95G, T96S
modifications: Synthetic Antibody

These molecules were tested on human CD33 (assay: Biacore SPR binding kinetics of anti-CD33 scFv-Fc clones with or without 10 µM MTX). Details: 10 µM MTX vs 0 µM MTX.
From the text: The first 4 rounds of panning used biotinylated CD33 antigen captured on streptavidin or neutravidin coated 96-well plates. […] 1536 clones were randomly chosen from the 4th and 5th round of panning against the CD33 antigen and their binding specificity determined by phage ELISA. Clones that specifically bound to CD33 were sequenced and all unique clones were subjected to a phage competition ELISA to assess their relative affinities to CD33 and sensitivity to MTX by measuring their binding strengths in the presence or absence of 10 µM (micromolar) MTX (i.e. in 0 or 10 µM MTX).
All binding kinetics analysis was performed on label-free Biacore surface plasmon biosensors (Biacore T200™ from GE Life Sciences) at 37° C. in 10 mM Hepes pH 7.4, 150 mM NaCl, 0.05% Tween-20 (HBST+), with or without 10 µM MTX. The Biacore data were processed in Biacore T200 Evaluation Software, and the data were double-referenced (Myszka, 1999, J Mol Recognit 12(5):279-284) and fit globally to a simple Langmuir with mass transport model to determine the equilibrium dissociation constant, KD, from the ratio of the kinetic rate constants (KD = koff/kon). In some cases the binding of antigen was very low (or not detectable) in the presence of 10 µM MTX and as a result kinetic rate constants could not be accurately determined. In these cases, a KD (or KD limit) was estimated based on the binding response at the highest analyte concentration tested or based on the typical limit of detection for a Biacore T200.

Row | Molecule | affinity for CD33 in the presence of MTX as compared to absence (in words)
1 | B1 | increased affinity for CD33 in the presence of 10 µM MTX

Same assay, conditions: CD33

Row | times greater affinity for CD33 in the presence of 10 µM MTX as compared to in 0 µM MTX | Molecule
2 | about 10 times | B1

Same assay, conditions: CD33; 0 µM MTX; 37° C., pH 7.4; scFv-Fc

Row | koff, kinetics toward antigen with 0 µM MTX [s⁻¹] | kon, kinetics toward antigen with 0 µM MTX [M⁻¹ s⁻¹] | Molecule
3 | 0.0021 | 83000 | B2
4 | 0.01 | 47000 | B3
5 | 0.026 | 72000 | B4
6 | 0.0026 | 140000 | B1
7 | 0.044 | 84000 | B5
8 | 0.0061 | 61000 | B6
9 | 0.011 | 120000 | B7
10 | 0.037 | 28000 | B8
11 | 0.0038 | 58000 | B9
12 | 0.02 | 92000 | B10
13 | 0.017 | 110000 | B11
14 | 0.0018 | 160000 | B12
15 | 0.0045 | 63000 | B13

Same assay, conditions: CD33; 10 µM MTX; 37° C., pH 7.4; koff/kon, or estimated from binding response / limit of detection for weak interactions; read-out: KD, kinetics toward antigen with 10 µM MTX

Row | Kd [µM] | Molecule
16 | > 0.726 | B3
17 | > 15.7 | B4
18 | > 9.02 | B5

Same assay, conditions: CD33; 10 µM MTX; 37° C., pH 7.4; scFv-Fc

Row | koff, kinetics toward antigen with 10 µM MTX [s⁻¹] | kon, kinetics toward antigen with 10 µM MTX [M⁻¹ s⁻¹] | Molecule
19 | 0.013 | 45000 | B2
20 | 0.0006 | 390000 | B1
21 | 0.062 | 88000 | B6
22 | 0.087 | 75000 | B7
23 | 0.025 | 110000 | B10
24 | 0.0089 | 44000 | B12
25 | 0.051 | 94000 | B13
